Values of other authors in publication PMC5559722.
Like-named read-outs stand apart in the source and are kept apart here. Blank lines part the entries; values can stand above or below the substance they belong to.

Key:
p97 N-domain [1] = target: p97 N-domain (UniProt P55072)
p97 N-domain [2] = target: p97 N-domain (UniProt P55072); remark: listed apart in the source
p97 N-domain [3] = target: p97 N-domain (UniProt P55072); assay: ITC
RNF31 PUB (Homo sapiens) = RNF31 PUB (Homo sapiens) (UniProt Q96EP0)
[4] = target: p97 C-terminal peptide (Homo sapiens) (UniProt P55072)
p97 N-domain [5] = target: p97 N-domain (UniProt P55072); remark: listed apart in the source

Kd (p97 N-domain [1]): 1000 nM
Substance: FAF1 UBX (from UniProt Q9UNN5)

Kd (p97 N-domain [2]): 18000 nM
Substance: NPL4 UBXL (from UniProt Q8TAT6)

Kd (p97 N-domain [3]): 700 nM
Substance: OTU1 UBXL (from UniProt Q5VVQ6)

Kd (RNF31 PUB (Homo sapiens)): 300 nM
Substance: OTULIN (from UniProt Q96BN8)

Kd [4]: 50000 nM
Substance: RNF31 PUB (from UniProt Q96EP0)

Kd (p97 N-domain [5]): 1000 nM
Substance: p47 UBX (from UniProt Q9UNZ2)
